Results reported in US12037395 (IMMVIRA, dated 2024).

Tests used:
[1] = biological target: T1, biotin-labeled human PD-1 Fc protein (human, biotin-labeled (sites not given)); test: competition ELISA: blocks biotin PD-1-Fc binding to coated PD-L1-Fc
T1 construct: also called PD-1-Fc-biotin
Experimental: The next day, plates were washed with wash buffer (PBS+0.05% Tween-20, PBST), and blocked with 5% non-fatty milk in PBST for 2 hours at 37° C. Plates were then washed again using wash buffer.
After incubation at 37° C. for 40 minutes, plates were washed for 4 times using wash buffer. […] Plates were washed again using wash buffer. Finally, TMB was added and the reaction was stopped using 1M H_2SO_4, and the absorbance was read at 450 nm. Data were analyzed using Graphpad Prism software and $IC50$ values were reported.

[2] = biological target: human PD-1 on PD-1 Effector Cell Line (Genscript, GS-J2/PD-1) (human, UniProt Q15116 25-288); test: cell-based or functional assay
[3] = biological target: T1, biotin-labeled human PD-1 Fc protein; test: capture ELISA: antibody captured by anti-IgG Fc, biotin PD-1-Fc 60 nM
[4] = biological target: T1, biotin-labeled human PD-1 Fc protein; test: competition ELISA: blocks biotin PD-1-Fc binding to coated Nivolumab (competitor)
Experimental: The next day, plates were washed with wash buffer, and blocked with 5% non-fatty milk in PBST for 2 hours at 37° C. […] Plates were finally washed using wash buffer. TMB was added and the reaction was stopped using 1M H_2SO_4, and the absorbance was read at 450 nm. Data were analyzed using Graphpad Prism software and $IC50$ values were reported.

[5] = biological target: T2, recombinant human PD-1-his (Sino biological, #10377-H08H) (human, UniProt Q15116 25-167); test: SPR (Biacore T200), antibody captured, antigen flowed
T2 construct: Bought protein; also called Human PD-1-his protein; not shown: his tag
Source text: (§1) Briefly, goat […] (GE healthcare, Cat #BR100839, Human Antibody Capture Kit) was covalently linked to a CM5 chip (carboxy methyl dextran coated chip) via primary amines, using a standard amine coupling kit (GE healthcare, Pittsburgh, PA, USA) provided by Biacore. Unreacted moieties on the biosensor surface were blocked with ethanolamine. […] Then, recombinant human PD-1-his (Sino biological, #10377-H08H) or cynomolgus monkey PD-1-his protein (Acro biosystems, #PD-1-C5223) in HBS EP buffer (provided by Biacore) was flowed onto the chip at a flow rate of 30 μL/min. The antigen-antibody association kinetics was followed for 2 minutes and the dissociation kinetics was followed for 10 minutes. The association and dissociation curves were fit to a 1:1 *Langmuir* binding model using BIA evaluation software.

[6] = biological target: T3, cynomolgus monkey PD-1-his protein (Acro biosystems, #PD-1-C5223) (cynomolgus monkey, UniProt B0LAJ3 25-170); test: as above
T3 construct: Bought protein; also called Cynomolgus PD-1; Cynomolgus PD1
Source text: as §1

[7] = biological target: T2, recombinant human PD-1-his (Sino …); test: SPR (Biacore) as in Example 2

Row | IC50 [1] [nM] | Reporter Activation (EC50, nM) human PD-1 cell (NFAT-luc)/human PD-L1 cell [2] [nM] | EC50 [3] [nM] | IC50 [4] [nM] | Kd [5] [nM] | koff [5] [s⁻¹] | kon [5] [M⁻¹ s⁻¹] | Kd [6] [nM] | koff [6] [s⁻¹] | kon [6] [M⁻¹ s⁻¹] | Kd [7] [nM] | Binder
1 | 0.21 | 7.58 | 0.16 | 0.87 | 0.372 | 0.000131 | 353000 | 18.1 | 0.00249 | 138000 | – | mouse anti-PD-1 monoclonal antibody C1F5 (antibody, mouse IgG1, kappa, V domains shown, Purified from hybridoma; Constant regions tied only generically to 'mouse antibodies') VH: EVQLVESGGGLVKPGGSLKLSCAASGFAFSSYDMSWVRQTPEKRLEWVAYITGGGSSSFYPDTVKGRFTISRDNSKNTLYLQMTSLRSEDTAMYYCASPYLSYFDYWGQGTTLTVSS VL: DIVLTQSPATLSVTPGDSVSLSCRASQSISNNLHWYQQKSHESPRLLIKYGSQSMSGIPSRFSGSGSGTDFTLVINSVETEDFGMYFCQQSNSWPLTFGAGTKLELKR
2 | 0.43 | 13.2 | 0.25 | 2.26 | 2.3 | 0.000359 | 156000 | 17.3 | 0.00521 | 301000 | – | mouse anti-PD-1 monoclonal antibody C1F4 (antibody, mouse IgG1, kappa, V domains shown, Purified from hybridoma; Constant regions tied only generically to 'mouse antibodies') VH: QVQLQQSGAELVRPGVSVKISCKGSGYKFTDYAMHWVRQSHAKSLEWIGIISTYSGDVSFNQNFKGKATMTVDKSSSTAYMELARLTSEDSAIYYCSRLGITAGFAYWGQGTLVTVSA VL: DIVMTQSQKFMSTSVGDRVTITCKASQNVRTAVAWYQQKPGQSPKALIYLASNRHTGVPDRFTGSGSGTDFTLTISNVQSKDLADYFCLQHWNYPYTFGGGTKLEIKR
3 | 0.23 | 23.4 | 0.16 | 1.34 | 0.88 | 0.000203 | 231000 | 14.6 | 0.0047 | 322000 | – | mouse anti-PD-1 monoclonal antibody C1C5 (antibody, mouse IgG1, kappa, V domains shown, Purified from hybridoma; Constant regions tied only generically to 'mouse antibodies') VH: QIQLVQSGPELKKPGETVKISCKASGYTFTNYGINWVKQAPGKGLKWMGWINTYSGEPTYSDDFKGRFAFSLETSASTAYLQINNLKNEDTSTYFCVRQGDFDYEDAMDYWGQGTSVTVSS VL: DVLMTQSPLSLPVSLGDQASISCRSSQSIVHSNGHIYLEWYLQKPGQSPKLLIYKVSKRFSGVPDRFSGSGSGTDFTLKISRVEAEDLGVYYCFQGSHGTFGGGTKLEIKR
4 | 0.25 | 11.1 | 0.2 | 1.49 | 2.88 | 0.000442 | 153000 | 12.5 | 0.00298 | 238000 | – | mouse anti-PD-1 monoclonal antibody C1E2 (antibody, mouse IgG1, kappa, V domains shown, Purified from hybridoma; Constant regions tied only generically to 'mouse antibodies') VH: QVQLQQSGAELVRPGTSVKISCKASGYTFTNYWLGWVKQRPGHGLEWIGDIYPGGGYTNYNENFKGKATLTADTSSSTAYMQLSSLTSEDSAVFFCARGYGTNYWYFDVWGAGTTVTVSS VL: SIVMTQTPKFLLVSAGDRVTITCKASQSVSNDVAWYQQKPGQSPKLLIYYAFHRYTGVPDRFTGSGYGTDFTFTISTVQAEDLAVYFCQQDYSSPYTFGGGTKLEIKR
5 | – | – | – | – | – | – | – | – | – | – | 3.88 | humanized anti-PD-1 antibody huC1E1-V1 (antibody, human IgG1, kappa, Human IgG1/kappa, expressed in 293F cells) heavy: not shown light: EIVLTQSPATLSLSPGERATLSCRASKSVDDSGISFMHWFQQKPGQPPRLLIYAASNQGSGVPARFSGSGSGTDFTLTISSLEPEDFAVYFCHQTKEVPWTFGQGTKVEIKRTVAAPSVFIFPPSDEQLKSGTASVVCLLNNFYPREAKVQWKVDNALQSGNSQESVTEQDSKDSTYSLSSTLTLSKADYEKHKVYACEVTHQGLSSPVTKSFNRGEC
6 | – | – | – | – | – | – | – | – | – | – | 2.49 | humanized anti-PD-1 antibody huC1E1-V2 (antibody, human IgG1, kappa, Human IgG1/kappa, expressed in 293F cells) heavy: not shown light: EIVLTQSPATLSLSPGERATLSCRASKSVDDSGISFMHWFQQKPGQPPRLLIYAASNQGSGVPARFSGSGSGTDFTLTISSLEPEDFAVYFCHQTKEVPWTFGQGTKVEIKRTVAAPSVFIFPPSDEQLKSGTASVVCLLNNFYPREAKVQWKVDNALQSGNSQESVTEQDSKDSTYSLSSTLTLSKADYEKHKVYACEVTHQGLSSPVTKSFNRGEC
7 | 0.2 | 10.8 | 0.24 | 2.13 | 2.83 | 0.000577 | 204000 | 112 | 0.00292 | 26000 | – | mouse anti-PD-1 monoclonal antibody D1F1 (antibody, mouse IgG1, kappa, V domains shown, Purified from hybridoma; Constant regions tied only generically to 'mouse antibodies') VH: EVMLVESGGGLVKPGGSLKLSCAASGFTFSSNTMSWVRQTPEKRLEWVAAISGGGVNTYYPDSVKGRFTISRDNARNTLYLQMSSLRSEDTALYYCARHGNYNYYGMDYWGQGTSVTVSS VL: not shown
8 | 0.21 | 14.7 | 0.2 | 1.89 | 1.77 | 0.000307 | 173000 | 116 | 0.00238 | 20600 | – | mouse anti-PD-1 monoclonal antibody D2C2 (antibody, mouse IgG1, kappa, V domains shown, Purified from hybridoma; Constant regions tied only generically to 'mouse antibodies') VH: EVMLVESGGGLVKPGGSLKLSCAASGFTFSSNTMSWVRQTPEKRLEWVAAISGGGVDTYYPDSVKGRFTISRDNARNTLYLQMSSLRSEDTALYYCARHGNYNYYGMDYWGQGTSVTVSS VL: not shown
9 | 0.26 | 9.11 | 0.16 | 1.1 | 0.342 | 5.88e-05 | 172000 | 3.9 | – | 203000 | – | mouse anti-PD-1 monoclonal antibody C1E1 (antibody, mouse IgG1, kappa, Purified from hybridoma; also called clone C1E1) heavy: EVMLVESGGGLVKPGGSLKLSCAASGFTFSSYLMSWVRQTPEKRLEWVATISGGGGDTYFPDSVKGRFTISRDNVKNNLYLQMSSLRSEDTALYYCVRFGGAGYYWYFDVWGAGTTVTVSSAKTTPPSVYPLAPGSAAQTNSMVTLGCLVKGYFPEPVTVTWNSGSLSSGVHTFPAVLQSDLYTLSSSVTVPSSTWPSETVTCNVAHPASSTKVDKKIVPRDCGCKPCICTVPEVSSVFIFPPKPKDVLTITLTPKVTCVVVDISKDDPEVQFSWFVDDVEVHTAQTQPREEQFNSTFRSVSELPIMHQDWLNGKEFKCRVNSAAFPAPIEKTISKTKGRPKAPQVYTIPPPKEQMAKDKVSLTCMITDFFPEDITVEWQWNGQPAENYKNTQPIMDTDGSYFVYSKLNVQKSNWEAGNTFTCSVLHEGLHNHHTEKSLSHSPGK light: not shown
10 | 0.21 | 7.35 | 0.19 | 1.4 | 1.05 | 0.000203 | 194000 | 31.7 | 0.00632 | 200000 | – | mouse anti-PD-1 monoclonal antibody D1F2 (antibody, mouse IgG1, kappa, V domains shown, Purified from hybridoma; Constant regions tied only generically to 'mouse antibodies') VH: EVMLVESGGGLVKPGGSLKLSCAASGFTFSSYTMSWVRQTPEKRLEWVATISGGGSNIYYPDSVEGRFTVSRDNARNTLYLHMSSLRSEDTALYYCVLNYAYAMDYWGQGTSVTVSS VL: DIQMTQTTSSLSASLGDRVTISCRASQDISNFLNWYQQKPDGTVKLLIYYTSRLQSGVPSRFSGTGSGTDYSLTISNLEQEDLATYFCQQGSSLPWTFGGGTKLEIKR
11 | 0.22 | 9.13 | 0.2 | 1.28 | 2.06 | 0.000386 | 188000 | 11.3 | 0.00236 | 210000 | – | mouse anti-PD-1 monoclonal antibody D1A1 (antibody, mouse IgG1, kappa, V domains shown, Purified from hybridoma; Constant regions tied only generically to 'mouse antibodies') VH: EVMLVESGGGLVKPGGSLKLSCAASGFTFSNYAMSWVRQTPEKRLEWVATISGGGGNIYYPDSVKGRFTISRDNARNTLYLQMSSLRSEDTALYYCASPYANYVWYLDVWGAGTTVTVSS VL: DIQMTQTTSSLSASLGDRVTISCRASQDISNYLNWYQQKPDGTVKLLIYYTSRLHSGVPSRFSGSGSGTDFSLTISNLEEEDIATYFCQQSNALPWTFGGGTKLEIKR
12 | 0.27 | 12.1 | 0.18 | 1.4 | 1.13 | 0.000189 | 168000 | 9.5 | 0.00331 | 348000 | – | mouse anti-PD-1 monoclonal antibody C1A1 (antibody, mouse IgG1, kappa, V domains shown, Purified from hybridoma; Constant regions tied only generically to 'mouse antibodies') VH: QVTLKESGPGILKPSQTLSLTCSFSGFSLSTSGMGVGWIRQPSGKGLEWLAHIWWDDDKFYNPSLKSQLTISKDTSRNQVFLKITSVDTADTATYYCARTGGFITTGYWYFDVWGAGTTVTVSS VL: DIQMTQTTSSLSASLGDRVTISCRASQDISNYLIWYQQKTDGTLKLLIYYTSRLHSGVPSRFSGSGSGTDYSLTISNLEQEDIATYFCQQHKTLPWTFGGGTKLEIKR
